Data set [1] has as its system Saccharomyces cerevisiae. As to the kind of experiment: protein stability index of tFT-peptide fusion (C-terminal peptide) (PSI (0-1 scale)); higher = more stable (slower turnover). Here is the method:
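MPS profiling in S. cerevisiae of the tFT-X12 degron library: putative degron peptides plus stable controls, 12 aa, fused to the C-terminus of a sfGFP-mCherry timer. Cells are FACS-sorted into 8 mCherry/sfGFP bins and deep-sequenced. PSI runs from 0 (unstable) to 1 (stable). Backgrounds are wild type, das1Δ and doa10Δ at 30 °C, and wild type, das1Δ, cdc34-1 and cdc53-1 at 37 °C; 2-3 technical replicates each.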

The test system of data set [2] is Saccharomyces cerevisiae. The data set is described as above. To be noted: genetic background: wild type; temperature: 30 C.
Where [3] appears, read: genetic background: cdc34-1, temperature: 37 C.
Setting [4] is: genetic background: cdc53-1, temperature: 37 C.
[5] abbreviates: genetic background: das1 deletion, temperature: 30 C.
Where [6] appears, read: genetic background: das1 deletion, temperature: 37 C.
Where [7] appears, read: genetic background: doa10 deletion, temperature: 30 C.
Where [8] appears, read: genetic background: wild type, temperature: 30 C.
Where [9] appears, read: genetic background: wild type, temperature: 37 C.

Experimental findings from the supplement of paper PMC10724198 are described below.

± gives the standard deviation of the averaged measurements.
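Note: PSI is a weighted mean of sequencing reads over stability bins, variants kept only with over 10 reads, mCherry proximal and sfGFP distal, peptide attached via GGGS linker.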

Regarding WPRLSHIASFLA, the protein stability index was found to be 0.675 ± 0.039 in data set [1] (setting [3]); 0.724 ± 0.038 in data set [1] (setting [4]); 0.682 ± 0.021 in data set [1] (setting [5]); 0.729 ± 0.01 in data set [1] (setting [6]); 0.26889 ± 7.6e-05 in data set [1] (setting [7]); 0.326 ± 0.021 in data set [1] (setting [8]). The protein stability index in data set [1] (setting [9]) was 0.509 ± 0.0095; in data set [2] it was 0.459 ± 0.025.

On to WRFFLLLFFFGF, for which the protein stability index amounted to 0.493 ± 0.0066 in data set [1] (setting [3]); 0.536 ± 0.024 in data set [1] (setting [4]); 0.44 ± 0.04 in data set [1] (setting [5]); 0.601 ± 0.045 in data set [1] (setting [6]); 0.425 ± 0.0095 in data set [1] (setting [7]); 0.428 ± 0.024 in data set [1] (setting [8]). Further, the values for the protein stability index in data set [1] (setting [9]) and in data set [2] were 0.531 ± 0.012 and 0.465 ± 0.026, respectively.

Take WRIDVTIVCLGY: the protein stability index in data set [1] (setting [3]) is 0.157 ± 0.03; in data set [1] (setting [4]), 0.256 ± 0.042; in data set [1] (setting [5]) it was 0.19 ± 0.033; in data set [1] (setting [6]), 0.3084 ± 0.0029; in data set [1] (setting [7]), 0.169 ± 0.01; in data set [1] (setting [8]) it was 0.202 ± 0.029. The values for the protein stability index in data set [1] (setting [9]) and in data set [2] were 0.294 ± 0.019 and 0.3 ± 0.03, respectively.

On to WSCGRVWQRFCD, for which the protein stability index in data set [1] (setting [3]) is 0.675 ± 0.019; in data set [1] (setting [4]), 0.74 ± 0.01; in data set [1] (setting [5]), 0.674 ± 0.018; in data set [1] (setting [6]), 0.718 ± 0.039; in data set [1] (setting [7]) it was 0.678 ± 0.018; in data set [1] (setting [8]), 0.631 ± 0.014. Further, the figures for the protein stability index in data set [1] (setting [9]) and in data set [2] were 0.711 ± 0.016 and 0.7065 ± 0.0045, respectively.

Take WSSAHVAWCYTT: the protein stability index in data set [1] (setting [3]) is 0.619 ± 0.026; in data set [1] (setting [4]), 0.723 ± 0.021; in data set [1] (setting [5]), 0.5991 ± 0.0031; in data set [1] (setting [6]), 0.7298 ± 0.0027; in data set [1] (setting [7]), 0.1926 ± 0.00045; in data set [1] (setting [8]), 0.217 ± 0.022. Moreover, the protein stability index was found to be 0.42 ± 0.0059 in data set [1] (setting [9]) and 0.304 ± 0.013 in data set [2].

As to WTILTVMFCSYI, the protein stability index was 0.312 ± 0.011 in data set [1] (setting [3]); 0.396 ± 0.014 in data set [1] (setting [4]); 0.276 ± 0.026 in data set [1] (setting [5]); 0.418 ± 0.031 in data set [1] (setting [6]); 0.282 ± 0.0044 in data set [1] (setting [7]); 0.261 ± 0.022 in data set [1] (setting [8]). Besides, the protein stability index in data set [1] (setting [9]) came out at 0.377 ± 0.019; in data set [2], 0.275 ± 0.026.

Consider WVDVAGIVAVAG, for which the protein stability index stood at 0.526 ± 0.021 in data set [1] (setting [3]); 0.55 ± 0.022 in data set [1] (setting [4]); 0.421 ± 0.026 in data set [1] (setting [5]); 0.5809 ± 0.0037 in data set [1] (setting [6]); 0.387 ± 0.0085 in data set [1] (setting [7]); 0.419 ± 0.016 in data set [1] (setting [8]). Besides, the protein stability index in data set [1] (setting [9]) was found to be 0.5495 ± 0.003; in data set [2], 0.522 ± 0.036.

WWGIVIVGGLGC: the protein stability index in data set [1] (setting [3]) amounted to 0.526 ± 0.0069; in data set [1] (setting [4]), 0.566 ± 0.019; in data set [1] (setting [5]) it was 0.423 ± 0.019; in data set [1] (setting [6]), 0.5691 ± 0.00075; in data set [1] (setting [7]) it was 0.384 ± 0.02; in data set [1] (setting [8]), 0.404 ± 0.011. Also, the figures for the protein stability index in data set [1] (setting [9]) and in data set [2] were 0.564 ± 0.024 and 0.489 ± 0.051, respectively.

As for YAFTCFLLVVAP, the protein stability index in data set [1] (setting [3]) was found to be 0.172 ± 0.0073; in data set [1] (setting [4]), 0.23 ± 0.011; in data set [1] (setting [5]), 0.167 ± 0.021; in data set [1] (setting [6]), 0.302 ± 0.011; in data set [1] (setting [7]), 0.1642 ± 0.0014; in data set [1] (setting [8]), 0.16 ± 0.015. In addition, the values for the protein stability index in data set [1] (setting [9]) and in data set [2] were 0.259 ± 0.022 and 0.237 ± 0.013, respectively.

In the case of YFFGWSVSLLIL, the protein stability index in data set [1] (setting [3]) worked out at 0.133 ± 0.014; in data set [1] (setting [4]), 0.251 ± 0.039; in data set [1] (setting [5]), 0.192 ± 0.035; in data set [1] (setting [6]), 0.322 ± 0.0091; in data set [1] (setting [7]) it was 0.108 ± 0.015; in data set [1] (setting [8]) it was 0.124 ± 0.021. Also, the values for the protein stability index in data set [1] (setting [9]) and in data set [2] were 0.2397 ± 0.0019 and 0.184 ± 0.019, respectively.
